Patent US12702694B2, “Methods for identification, assessment, prevention, and treatment of metabolic disorders using SLIT2” (Dana-Farber Cancer Institute, Inc., priority 2015, dated 2026)

Columns and labels:
lean mice = experiment: Tissue gene expression after intravenous delivery of adenovirus to lean mice; assay type: in vivo, Mus musculus
Method: All animal experiments were approved by the Institutional Animal Care and Use Committee of the Beth Israel Deaconess Medical Center. Mice (Mus musculus) were obtained from Jackson Laboratories, maintained in 12 hour light-lark cycles (6 a.m.-6 p.m.) at 22° C., and fed a standard irradiated rodent chow diet or a high-fat diet (60% fat) for 12-20 weeks. AAV-8 viruses (Penn Vector Core) and adenoviruses (Vector Biolabs or constructed in-house) were injected at a titer of 10^11 or 10^10 per mouse, respectively. All experiments were done with male mice. The aP2-PRDM16 transgenic mice have been previously described in Seale et al. (2011) J. Clin. Invest. 121:96-105. PRDM16-floxed mice were crossed with adiponectin-Cre and were maintained on a pure C57BL/6 background (Cohen et al. (2014) Cell 156:304-316). The Slit2-floxed mice have been described previously in Rama et al. (2015) Nat. Med. 21:483-491. Lean C57BL/6 mice were obtained from Jackson Laboratories and were […].
(§1) RNA was extracted from cultured cells or frozen tissue samples using TRIzol®, purified with QIAGEN RNeasy® minicolumns. Normalized RNA was reversed transcribed using a high-capacity cDNA reverse transcription lot (Applied Biosystems) and cDNA was analyzed by qRT-CPR. Relative mRNA levels were calculated using the comparative CT method and normalized to cyclophilin miRNA. All primers used are listed with their sequences in Table 3 as follows: […]
Slit2 full-length (untagged and Myc-DDK tagged) expression plasmids and corresponding LacZ control plasmids in adenovirus was purchased from Vector Biolabs. To construct the Slit2-N and Slit2-C ENTR clones, PCR primers were designed to amplify the signal peptide, N-terminal, and C-terminal Slit2 from mouse cDNA (OriGene MR227608). To construct the Slit2-N and Slit2-C ENTR clone, the Slit2N gene was amplified from mouse Slit2 cDNA to create PCR fragments corresponding to Slit2-signal peptide and Slit2-N that were ligated into the pENTR1a dual selection vector. The Slit2-C PCR fragment was sub-cloned into the pENTR1a vector containing the signal peptide. The Slit2-N and Slit2-C expression clones in which the fragments are fused to a C-terminal V5 tag were generated by performing the LR reaction between pENTR/D-TOPO-Slit2N or pENTR/D-TOPO-Slit2-C and pAD/CMV/V5-DEST (Life Technologies). The expression construct was cut with Pac and transfected into HEK-293A cells to produce crude adenoviral stock. Amplified virus was purified and concentrated using the Vivapure® adenopack 100 (Sartorius Stedim Biotech) and buffer exchanged to 10 mM Tris-Cl at pH 8.0, 2 mM MgCl2, 4% w/v sucrose. Adenovirus titer was calculated using an Adeno-X™ Rapid Titer kit (Clontech). For primary adipocytes a concentration of 10^8 pfu/well was used and 10^10 pfu/mouse were used for in vivo experiments. Expression levels of Slit2-N and Slit2-C were confirmed after 48 hours post infection by Western blot analysis using a V5 antibody (Life Technologies). Expression of Slit2-N and Slit2-C was performed by amplification from mouse Slit2 cDNA and ligated into the pENTR dual selection vector with a signal peptide sequence.

primary inguinal cells = experiment: Thermogenic gene expression in primary inguinal cells with adenoviral overexpression; assay type: cell-based, Mus musculus
Method: Inguinal and brown stromal-vascular fractions were obtained from 6 weeks old male or newborn mice (postnatal days 5-10) for white and brown fat cultures, respectively. Inguinal fat tissue was dissected and washed with PBS, minced and digested for 45 min at 37° C. in PBS containing 10 mM CaCl2), 2.4 U/ml dispase II (Roche) and 10 mg/ml collagenase D (Roche). Brown fat tissue was dissected, washed with PBS, minced and digested for 45 min at 37° C. in PBS containing 1.3 mM CaCl2, 123 mM NaCl, 5 mM KCl, 5.0 mM glucose, 100 mM HEPES, 4% BSA and 1.5 mg/ml collagenase B (Roche). Digested tissue was filtered through a 100-μm cell strainer and centrifuged at 600 g for 10 min. […] For adenoviral overexpression of Slit2-FL, Slit2-N, Slit2-C, LacZ or Cre, virus was added at day 2 of differentiation at a titer of 10^8 particles/well and cells were analyzed at day 6-7. […]
as §1, with “[…].” for “miRNA. All primers used are listed with their sequences in Table 3 as follows:”

high fat diet-fed mice = experiment: Whole body energy expenditure (CLAMS) and tissue weights; assay type: in vivo, Mus musculus
Method: Glucose tolerance tests were performed on mice 7 days post-injection with adenovirus. […] Animals were fasted overnight and then received intraperitoneal glucose at […]. Energy expenditure was analyzed using a Comprehensive Lab Animal Monitoring System (Columbus Instruments). Cold exposure and thermoneutrality experiments were performed in Balb/c mice at 4° C. or 30° C., respectively. Total levels of cholesterol, free fatty acids, triglycerides and insulin were measured at the Core Facility at Joslin Diabetes Center.

[1] = lean mice, Slit2-C adenovirus, FIG. 6D
[2] = 16-week high fat diet-fed mice, Slit2-C adenovirus vs LacZ
[3] = i.v. Slit2 adenovirus vs LacZ, lean mice, day 7, FIG. 4E

B1: Slit2-C: ~50 kDa C-terminal cleavage fragment of Slit2 beginning at TSP (SEQ ID NO: 22); adenovirally expressed or purified FLAG-tagged protein (protein, listed as Homo sapiens)
chain: TSPCDNFDCQNGAQCIIRINEPICQCLPGYLGEKCEKLVSVNFVNKESYLQIPSAKVRPQTNITLQIATDEDSGILLYKGDKDHIAVELYRGRVRASYDTGSHPASAIYSVETINDGNFHIVELLTLDSSLSLSVDGGSPKVITNLSKQSTLNFDSPLYVGGMPGKNNVASLRQAPGQNGTSFHGCIRNLYINSELQDFRKMPMQTGILPGCEPCHKKVCAHGMCQPSSQSGFTCECEEGWMGPLCDQRTNDPCLGNKCVHGTCLPINAFSYSCKCLEGHGGVLCDEEEDLFNPCQMIKCKHGKCRLSGVGQPYCECNSGFTGDSCDREISCRGERIRDYYQKQQGYAACQTTKKVSRLECRGGCAGGQCCGPLRSKRRKYSFECTDGSSFVDEVEKVVKCGCARCAS
modifications: FLAG tag
notes: adenovirally expressed or purified FLAG-tagged protein
- induction of Ucp1 mRNA in iWAT (lean mice; lean mice injected with Slit2-C adenovirus, FIG. 6C): 3 fold
- expression of mitochondrial genes (Atp5b, Uqcrb, Atp6vOa2, Atp9b, Cox5a) in BAT (lean mice; [1]): upregulation
- transcriptional regulators Prdm16, Nrf1, and Erra in classical brown fat (lean mice; [1]): significant changes
- thermogenic gene expression in primary inguinal cells (primary inguinal cells; Slit2-C vs LacZ virus, day 7, FIG. 6A): comparable to full-length Slit2
- body weight (high fat diet-fed mice; [2]): no observable difference
- food intake (high fat diet-fed mice; [2]): no observable difference
- locomotor activity (high fat diet-fed mice; [2]): no observable difference
- respiratory exchange ratio (RER) (high fat diet-fed mice; [2]): no observable difference
- whole-body oxygen consumption (high fat diet-fed mice; 16-week high fat diet-fed mice, Slit2-C adenovirus vs LacZ, normalized to total body weight): induced
- mass of the brown and inguinal depots (high fat diet-fed mice; day 7 post-injection, FIGS. 8F, 8I): reduction

B2: Slit2: Slit family secreted extracellular matrix protein, full length ~180 kDa; used as commercial recombinant protein or adenovirally expressed (protein)
chain: QACPAQCSCSGSTVDCHGLALRSVPRNIPRNTERLDLNGNNITRITKIDFAGLRHLRVLQLMENRISTIERGAFQDLKELERLRLNRNNLQLFPELLFLGTAKLYRLDLSENQIQAIPRKAFRGAVDIKNLQLDYNQISCIEDGAFRALRDLEVLTLNNNNITRLSVASFNHMPKLRTFRLHSNNLYCDCHLAWLSDWLRQRPRVGLYTQCMGPSHLRGHNVAEVQKREFVCSGHQSFMAPSCSVLHCPAACTCSNNIVDCRGKGLTEIPTNLPETITEIRLEQNSIRVIPPGAFSPYKKLRRLDLSNNQISELAPDAFQGLRSLNSLVLYGNKITELPKSLFEGLFSLQLLLLNANKINCLRVDAFQDLHNLNLLSLYDNKLQTVAKGTFSALRAIQTMHLAQNPFICDCHLKWLADYLHTNPIETSGARCTSPRRLANKRIGQIKSKKFRCSGTEDYRSKLSGDCFADLACPEKCRCEGTTVDCSNQRLNKIPDHIPQYTAELRLNNNEFTVLEATGIFKKLPQLRKINFSNNKITDIEEGAFEGASGVNEILLTSNRLENVQHKMFKGLESLKTLMLRSNRISCVGNDSFIGLGSVRLLSLYDNQITTVAPGAFDSLHSLSTLNLLANPFNCNCHLAWLGEWLRRKRIVTGNPRCQKPYFLKEIPIQDVAIQDFTCDDGNDDNSCSPLSRCPSECTCLDTVVRCSNKGLKVLPKGIPKDVTELYLDGNQFTLVPKELSNYKHLTLIDLSNNRISTLSNQSFSNMTQLLTLILSYNRLRCIPPRTFDGLKSLRLLSLHGNDISVVPEGAFNDLSALSHLAIGANPLYCDCNMQWLSDWVKSEYKEPGIARCAGPGEMADKLLLTTPSKKFTCQGPVDITIQAKCNPCLSNPCKNDGTCNNDPVDFYRCTCPYGFKGQDCDVPIHACISNPCKHGGTCHLKEGENAGFWCTCADGFEGENCEVNIDDCEDNDCENNSTCVDGINNYTCLCPPEYTGELCEEKLDFCAQDLNPCQHDSKCILTPKGFKCDCTPGYIGEHCDIDFDDCQDNKCKNGAHCTDAVNGYTCVCPEGYSGLFCEFSPPMVLPRTSPCDNFDCQNGAQCIIRINEPICQCLPGYLGEKCEKLVSVNFVNKESYLQIPSAKVRPQTNITLQIATDEDSGILLYKGDKDHIAVELYRGRVRASYDTGSHPASAIYSVETINDGNFHIVELLTLDSSLSLSVDGGSPKVITNLSKQSTLNFDSPLYVGGMPGKNNVASLRQAPGQNGTSFHGCIRNLYINSELQDFRKMPMQTGILPGCEPCHKKVCAHGMCQPSSQSGFTCECEEGWMGPLCDQRTNDPCLGNKCVHGTCLPINAFSYSCKCLEGHGGVLCDEEEDLFNPCQMIKCKHGKCRLSGVGQPYCECNSGFTGDSCDREISCRGERIRDYYQKQQGYAACQTTKKVSRLECRGGCAGGQCCGPLRSKRRKYSFECTDGSSFVDEVEKVVKCGCARCAS
- vascular and neuronal markers in fat or skeletal muscle (lean mice; 7 days postinjection, FIGS. 12D-12F): did not change
- induction of PRDM16 in brown fat (lean mice; i.v. Slit2 adenovirus): greater than 2 fold
- other thermogenic genes or UCP1 protein in brown fat (lean mice; i.v. Slit2 adenovirus): without any changes
- induction of Ucp1 and Elovl3 in inguinal adipose tissue (lean mice; i.v. Slit2 adenovirus vs LacZ, day 7, FIG. 3F): 2 fold
- induction of Prdm16 in iWAT (lean mice; [3]): 1.5 fold
- induction of Ucp1 in iWAT (lean mice; [3]): 2.5 fold
- lipolysis or lipogenesis gene expression in the liver (lean mice; i.v. Slit2 adenovirus, FIG. 4A): No changes
- skeletal muscle gene expression of Glut1, Glut4 and Tnfa (lean mice; i.v. Slit2 adenovirus, FIG. 4B): no gene expression changes
- white fat selective genes, including Leptin and Resistin (lean mice; iWAT, i.v. Slit2 adenovirus, FIG. 4E): strongly suppressed
- increase in Ucp1 mRNA (primary inguinal cells; adenovirus on day 2 of differentiation, analyzed day 7, vs lacZ, FIG. 3D): 8 fold
- energy expenditure, compared with Slit2-C experiments (high fat diet-fed mice; full-length Slit2 adenovirus, FIGS. 9A-9E): comparable results
